Data: US20050214207A1 (published 2005)
Values joined by “and” are separate entries in the source; they are usually repeats but may differ in a detail not shown here. Equal values may be shown once.

Tests used:
[1] = molecular target: T1, TR7-Fc fusion protein (Ala-Asp-Pro fused to E52-G184 of TR7, SEQ ID NO:3, fused to the Fc region) (human, UniProt O14763 52-184); experiment: competition ELISA: inhibition of biotinylated TRAIL binding to TR7-Fc captured on anti-human Fc
T1 construct: Expressed in baculovirus with the GP signal peptide; it is read as TR7; also called TR7-Fc receptor; TRAILR2; not shown: Fc region
Description: Goat anti-human Fc is diluted to 0.1 micrograms/ml in coating buffer. An Immulon 4 microplate is coated with 100 microliters per well of the Goat anti-human Fc solution and incubated overnight at 4° C. The coating solution is decanted from the plate, and blocking solution is dispensed at 200 microliters per well. The plate is incubated at room temperature for 1 hour. After the 1 hour incubation period, the blocking solution is decanted from the plate and 1 microgram/mL of TR7-Fc is dispensed at 100 microliters/well and incubated for 2 hours at room temperature. After the incubation, the plate is washed five times manually using a Wheaton manifold.
Antibodies corresponding to scFvs of the present invention are (previously) prepared in a low binding dilution plate using diluent. The antibodies are prepared in duplicate and are diluted from the stock concentration with 2.5 fold dilutions for the 7 subsequent wells. If a purified form of the antibody is available, the starting concentration is 5 micrograms/mL. The positive control (TR7-Fc) is diluted from 5 micrograms/mL. 100 microliters is transferred into the ELISA plate and pre-incubated for 30 minutes at room temperature. […]
After the one-hour incubation, the plate is decanted and washed with PBST five times and blotted. […] The plate is immediately read at 450 nm using the spectrometer from Molecular Devices.

[2] = molecular target: T1, TR7-Fc fusion protein (Ala-Asp-Pro …); experiment: SPR (BIAcore 2000), TR7-Fc amine-coupled to CM5 chip, antibody as analyte, separate fitting of the dissociation phase
Description: (§1) TR7-Fc and TR2-Fc were immobilized on individual flow cells of a BIAcore CM5 sensor chip (BIAcore, Cat# BR-1000-14). Amine coupling (BIAcore, Cat# BR-1000-50) was used to covalently bind each receptor to the dextran matrix on the sensor chip. The optimal pH for this coupling was analyzed using preconcentration experiments ranging from pH 4-7 and was determined to be pH 4.0 based on the slope of the binding. The actual coupling was performed using the manual injection mode. A target level of 200 relative units (RU) was set as the goal for both flow cells. A response of 1000 RU correlates to a change in surface concentration of about 1 ng/mm² for proteins. The molecular weight of the TR7 and TR2 fusion proteins was nearly identical. The concentration of both receptors for immobilization was 5 μg/ml in 10 mM acetate, pH 4.0 (BIAcore, Cat# BR-1003-49). The entire experiment was performed at a flow rate of 5 μL/min. Contact time for the N-ethyl-N′-(3-dimethylaminoprolpyl)carbodiimide hydrochloride/Ethanolamine hydrochloride-NaOH, pH 8.5 (EDC/NHS) injection was 3 minutes. […]
(§2) Analysis of CM005G08 kinetics was performed using the BIAcore 2000 instrument with the 2000 control software, version 3.1.1. […] The off rate of CM005G08 was determined by washing the complex in the presence of HBS-EP buffer for 10 minutes. […]
(§3) The binding data were analyzed using the BIAevaluation software, version 3.1. […]

[3] = molecular target: T1, TR7-Fc fusion protein (Ala-Asp-Pro …); experiment: SPR (BIAcore 2000), TR7-Fc amine-coupled to CM5 chip, antibody as analyte, 1:1 Langmuir model, double-reference subtraction, mean±STD of three experiments
Description: as §1, §2, §3

IC50 [1]: 5.3 nM and 6.89 nM
koff [2]: 0.00266 s⁻¹ and 0.00268 s⁻¹
Kd [3]: 0.25 nM and 0.33 nM
B1: CM005G08 whole IgG1 antibody comprising the VH and VL domains of the CM005G08 scFv (antibody, V domains shown)
VH: EVQLVQSGGGVERPGGSLRLSCAASGFTFDDYGMSWVRQAPGKGLEWVSGINWNGGSTGYADSVKGRVTISRDNAKNSLYLQMNSLRAEDTAVYYCAKILGAGRGWYFDLWGKGTTVTVSS
VL: SSELTQDPAVSVALGQTVRITCQGDSLRSYYASWYQQKPGQAPVLVIYGKNNRPSGIPDRFSGSSSGNTASLTITGAQAEDEADYYCNSRDSSGNHVVFGGGTKLTVLG
notes: Two lots were tested; also called CM05G08; IgG1 format of CM005G08
